In patent US20250002562A1 (Scripps Research, published 2025):

molecular target: SARS-CoV2 RBD antigen (Genscript) (SARS-CoV2, UniProt P0DTC2 319-541); assay: ELISA on RBD antigen, human IgG at 1 µg/mL, O.D. 450 nm

Row | Binder | binding result
1 | SKAI-DS1 (antibody, V domains shown, also called SKAI-DS1 human IgG antibody) VH: EVQLLESGGGLVQTGGSLRLSCAASGFTFSDYAMSWVRQAPGKGLEWVSWIYSNDGNKYYADSVKGRFTISRDNSKNTLYLQMNSLRAEDTAVYYCARFPVPSWRNTWSSYDAMDVWGQGTLVTV VL: QSVLTQPPSASGTPGRRVTISCTGSSSNIGSNYVSWYQQLPGTAPKLLIYSDSNRPSGVPDRFSGSKSGTSASLAISGLRSEDEADYYCGTWDASLSGYVFGGGTKLTVL | binds
2 | SKAI-DS64 (antibody, V domains shown, also called SKAI-DS64 human IgG antibody) VH: EVQLLESGGGLVQPGGSLRLSCAASGFTFSDYSMSWVRQAPGKGLEWVSGIYHSDGSKYYADSVKGRFTISRDNSKNTLYLQMNSLRAEDTAVYYCARFDPVFDYWGQGTLVTV VL: QSVLTQPPSASGTPGQRVTISCSGSSSNIGSNAVSWYQQLPGTAPKLLIYDNNHRPSGVPDRFSGSKSGTSASLAISGLRSEDEADYYCGSWDDSLNAYVFGGGTKLTVL | binds
3 | SKAI-DS66 (antibody, V domains shown, also called SKAI-DS66 human IgG antibody) VH: EVQLLESGGGLVQPGGSLRLSCAASGFTFSDYAMSWVRQAPGKGLEWVSAIYPGGGSTYYADSVKGRFTISRDNSKNTLYLQMNSLRAEDTAVYYCARNLFGFDYWGQGTLVTV VL: QSVLTQPPSASGTPGQRVTISCTGSSSNIGSNAVYWYQQLPGTAPKLLIYDDSNRPSGVPDRFSGSKSGTSASLAISGLRSEDEADYYCGSWDDSLSAYVFGGGTKLTVL | binds
4 | SKAI-DS3 (antibody, V domains shown, also called SKAI-DS3 human IgG antibody) VH: EVQLLESGGGLVQPGGSLRLSCAASGFTFSDYSMSWVRQAPGKGLEWVSAISSDSSSTYYADSVKGRFTISRDNSENTLYLQMNSLRAEDTAVYYCAKAILRCIPLGCYYADAMDVWGQGTLVTV VL: QSVLTQPPSASGTPGQRVTISCTGSSSNIGSNDVTWYQQLPGTAPKLLIYADSKRPSGVPDRFSGSKSGTSASLAISGLRSEDEADYYCGAWDYSLSAYVFGGGTKLTVL | no binding (tested: 1 µg/mL)
5 | SKAI-DS15 (antibody, V domains shown, also called SKAI-DS15 human IgG antibody) VH: EVQLLESGGGLVQPGGSLRLSCAASGFTFSDYDMSWVRQAPGKGLEWVSMIYSGSSSKYYADSVKGRFTISRDNSKNTLYLQMNSLRAEDTAVYYCARVTGTCHSGSCYYSDAMDVWGQGTLVTV VL: QSVLTQPPSASGTPGQRVTISCSGSSSNIGSNDVNWYQQLPGTAPKLLIYDDSNRPSGVPDRFSGSKSGTSASLAISGLRSEDEADYYCGAWDDSLSGYVFGGGTKLTVL | no binding (tested: 1 µg/mL)
